Experimental data: patent publication US20250034271A1 (EUCURE BEIJING BIOPHARMA, published 2025)

T1: mouse CD40 (mCD40) on transfected CHO cells (mouse, UniProt P27512 20-289)
T1 sequence: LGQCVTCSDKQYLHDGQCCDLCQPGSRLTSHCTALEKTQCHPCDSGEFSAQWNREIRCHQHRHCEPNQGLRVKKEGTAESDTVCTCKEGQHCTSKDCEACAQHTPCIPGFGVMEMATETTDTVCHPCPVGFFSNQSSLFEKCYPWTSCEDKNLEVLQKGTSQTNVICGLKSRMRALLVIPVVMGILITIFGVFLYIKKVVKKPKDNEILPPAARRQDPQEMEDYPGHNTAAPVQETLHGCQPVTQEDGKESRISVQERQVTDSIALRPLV

T2: monkey (rhesus macaque) CD40 (rmCD40) on transfected CHO cells (rhesus macaque, UniProt P25942 21-277 (human entry))
T2 construct: also called monkey CD40
T2 chain: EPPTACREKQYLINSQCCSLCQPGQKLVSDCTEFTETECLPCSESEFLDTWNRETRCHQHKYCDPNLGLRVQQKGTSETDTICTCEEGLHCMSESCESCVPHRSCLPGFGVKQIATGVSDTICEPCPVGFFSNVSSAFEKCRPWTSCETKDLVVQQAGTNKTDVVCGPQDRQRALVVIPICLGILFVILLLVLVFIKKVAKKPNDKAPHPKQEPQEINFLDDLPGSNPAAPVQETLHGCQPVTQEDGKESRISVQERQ


Tests used:
[1] = target: T1, mouse CD40 (mCD40) on transfected CHO …; assay: flow cytometry, CHO-mCD40 cells, antibody 1 µg/ml, anti-mIgG Fc-FITC; x: Anti-mouse-IgG-Fc-FITC, y: SSC-H
Procedure: (§1) 25 μl CHO cells were added to each well. 25 μl purified anti-hCD40 antibodies (1 μg/ml) (7F10, 6A7, or 4H6) were added to each well and were incubated at 4° C. for 30 minutes.
(§2) After being washed with PBS (1200 rmp, 5 min) twice, 50 μl of FITC labeled anti-mouse IgG Fc antibody (anti-mIgG Fc-FITC) was added into each well 1:100 dilution, followed by incubated at 4° C. for 30 minutes, and then PBS wash (1200 rmp, 5 min). The signals for FITC were detected by flow cytometry.

[2] = target: T1, mouse CD40 (mCD40) on transfected CHO …; assay: flow cytometry, CHO-mCD40 cells, anti-mIgG Fc-FITC
Procedure: as §1, §2

[3] = target: T3, human CD40 (hCD40) on transiently transfected CHO cells (human, UniProt P25942 21-277); assay: flow cytometry, CHO cells with hCD40, antibody titrated then hCD40L-hFc added (blocked ligand: hCD40L-hFc); y: hCD40 Ligand-hFc, x: Anti-mouse-IgG-Fc-PE
T3 construct: also called TNF Receptor Superfamily Member 5; TNFRSF5
Procedure: The anti-hCD40 antibodies were collected from mouse ascites fluid and purified by chromatography. 25 μl CHO cells transiently transfected with human CD40 were added to each well in a plate. The purified antibodies were titrated to final concentrations of 50, 5, 0.5, 0.05, and 0.005 μg/ml. The titrated antibodies were added to each well at 25 μl per well at 4° C. and incubated for 30 minutes.
hCD40 ligand-hFc was expressed by H293T cells. 50 μl of hCD40L-hFc was added to each well (1:500). The cells with hCD40L-hFc and the antibodies were incubated at 4° C. for 15 minutes.
After being washed with phosphate-buffered saline (PBS) twice, 50 μl of PE labeled anti-mouse IgG Fc antibody (anti-mIgG Fc-PE) at 1:500 dilution and FITC-labeled anti-human IgG Fc antibody (anti-hIgG Fc-FITC) at 1:100 dilution were added into each well, and incubated for 30 minutes at 4° C., followed by PBS wash. The signals for FITC and PE were determined by flow cytometry.

[4] = target: T2, monkey (rhesus macaque) CD40 (rmCD40) …; assay: flow cytometry, CHO-rmCD40 cells, antibody 1 µg/ml, anti-mIgG Fc-FITC; x: Anti-mouse-IgG-Fc-FITC, y: SSC-H
Procedure: as §1, §2

[5] = target: T4, chimeric (mouse and human) CD40 (chiCD40) on transfected CHO cells (chimeric (mouse and human)); assay: flow cytometry, CHO-chiCD40 cells, antibody 1 µg/ml, anti-mIgG Fc-FITC; x: Anti-mouse-IgG-Fc-FITC, y: SSC-H
T4 construct: also called human-mouse chimeric CD40; chimeric CD40
Procedure: as §1, §2

% cells in the Anti-mouse-IgG-Fc-FITC positive gate [1] | binding result [2] | % cells lower left (ligand- / antibody-) at 0.005µg/mL [3] | % cells lower left (ligand- / antibody-) at 0.05µg/mL [3] | % cells lower left (ligand- / antibody-) at 0.5µg/mL [3] | % cells lower left (ligand- / antibody-) at 5µg/mL [3] | % cells lower left (ligand- / antibody-) at 50µg/mL [3] | % cells lower right (ligand- / antibody+) at 0.005µg/mL [3] | % cells lower right (ligand- / antibody+) at 0.05µg/mL [3] | % cells lower right (ligand- / antibody+) at 0.5µg/mL [3] | % cells lower right (ligand- / antibody+) at 5µg/mL [3] | % cells lower right (ligand- / antibody+) at 50µg/mL [3] | % cells upper left (ligand+ / antibody-) at 0.005µg/mL [3] | % cells upper left (ligand+ / antibody-) at 0.05µg/mL [3] | % cells upper left (ligand+ / antibody-) at 0.5µg/mL [3] | % cells upper left (ligand+ / antibody-) at 5µg/mL [3] | % cells upper left (ligand+ / antibody-) at 50µg/mL [3] | % cells upper right (ligand+ / antibody+) at 0.005µg/mL [3] | % cells upper right (ligand+ / antibody+) at 0.05µg/mL [3] | % cells upper right (ligand+ / antibody+) at 0.5µg/mL [3] | Binder | also measured
0.674% | no binding | 42.7% | 9.95% | 7.02% | 12.9% | 12.8% | 1.99% | 32.1% | 47.7% | 78.8% | 78.1% | 4.03% | 0% | 0.056% | 0% | 0% | 51.3% | 57.9% | 45.2% | mouse anti-hCD40 antibody 03-7F10 (antibody, V domains shown, Mouse antibody purified from ascites) VH: EVKLVESGGGLVQPGGSLKLSCATSGFTFSDYYMYWVRQTPEKRLEWVAYISYGGDSTFYPDTVRGRFTISRDNAKNALYLQMSRLKSEDTAVYYCARPAPSAHSYYLDYWGQGTTLTVSS VL: DIQMTQTTSSLSASLGDRVTISCRASQDISNYLNWYQQKPDGTVKLLIYYTSRLHSGLPSRFSGSGSGTDYSLTISNLEQEDIATYYCQQGKTLPFTFASGTKLEIK | % cells upper right (ligand+ / antibody+) at 5µg/mL [3]: 8.35%; % cells upper right (ligand+ / antibody+) at 50µg/mL [3]: 9.09%; % cells in the Anti-mouse-IgG-Fc-FITC positive gate [4]: 82.6%; % cells in the Anti-mouse-IgG-Fc-FITC positive gate [5]: 82.4%
1.56% | no binding | 35.7% | 16.8% | 11.1% | 11.4% | 7.76% | 3.7% | 26.9% | 63.6% | 80.8% | 83.7% | 1.95% | 0% | 0% | 0% | 0.185% | 58.7% | 56.4% | 25.4% | mouse anti-hCD40 antibody 07-4H6 (antibody, V domains shown, Mouse antibody purified from ascites) VH: EVKLQESGPSLVKPSQTLSLTCSVTGDSVSSGYWNWIRKFPGNKLEYMGFISYSGSTYYTPSLKSRISITRDTSKNQFYLQLNSVTTEDTATYFCARFRRYDDGVDYWGQGTTLTVSS VL: DIQMTQSPSSLSASLGERVSLTCRASHEISGYLSWIQQKPDGTIKRLINAASTLASGVPKRFSGSRSGSEYSLTINSLESEDFADYYCLQYSSYPWTFGGGTKLEIK | % cells upper right (ligand+ / antibody+) at 5µg/mL [3]: 7.75%; % cells upper right (ligand+ / antibody+) at 50µg/mL [3]: 8.32%; % cells in the Anti-mouse-IgG-Fc-FITC positive gate [4]: 88.5%; % cells in the Anti-mouse-IgG-Fc-FITC positive gate [5]: 87.8%
1.16% | no binding | 41.2% | 14.9% | 3.18% | 6.37% | 7.92% | 4.1% | 31.6% | 45.1% | 67.8% | 69.7% | 1.44% | 0% | 0% | 0% | 0.108% | 53.2% | 53.5% | 51.7% | mouse anti-hCD40 antibody 06-6A7 (antibody, V domains shown, Mouse antibody purified from ascites) VH: QVQLQQPGAELVKPGASVKLSCKASGYTFISYYIYWVKQRPGQGLEWIGGINPRNGGTNFNEKFKSKATLTVDKSSSTAYMQLSSLTSEDSAVYYCTRHGNGVYWGQGTTLTVSS VL: DVVMTQTPLSLPVSLGDQASISCRSSQSLLHSNGNTYLHWYLQKPGQSPNHLIYQVSNRFSGVPDRFSGSGSGTDFTLKISRVEAEDLGVYFCSQTTHVPWTFGGGTKLEIK | % cells upper right (ligand+ / antibody+) at 5µg/mL [3]: 25.9%; % cells upper right (ligand+ / antibody+) at 50µg/mL [3]: 22.3%; % cells in the Anti-mouse-IgG-Fc-FITC positive gate [4]: 96.4%; % cells in the Anti-mouse-IgG-Fc-FITC positive gate [5]: 94.6%
